Data reported in PMC13061601, “CLCC1 promotes hepatic neutral lipid flux and nuclear pore complex assembly” (Nature, 2026).

Molecular target: the molecule itself
Experiment: migration on a gel, blot (Supplementary Fig. 8c); without reducing agent; sample and gel conditions not shown

B1: CLCC1 (natural protein, human, UniProt Q96S66 19-551, looked up)
chain: HDDDWIDPTDMLNYDAASGTMRKSQAKYGISGEKDVSPDLSCADEISECYHKLDSLTYKIDECEKKKREDYESQSNPVFRRYLNKILIEAGKLGLPDENKGDMHYDAEIILKRETLLEIQKFLNGEDWKPGALDDALSDILINFKFHDFETWKWRFEDSFGVDPYNVLMVLLCLLCIVVLVATELWTYVRWYTQLRRVLIISFLFSLGWNWMYLYKLAFAQHQAEVAKMEPLNNVCAKKMDWTGSIWEWFRSSWTYKDDPCQKYYELLLVNPIWLVPPTKALAVTFTTFVTEPLKHIGKGTGEFIKALMKEIPALLHLPVLIIMALAILSFCYGAGKSVHVLRHIGGPESEPPQALRPRDRRRQEEIDYRPDGGAGDADFHYRGQMGPTEQGPYAKTYEGRREILRERDVDLRFQTGNKSPEVLRAFDVPDAEAREHPTVVPSHKSPVLDTKPKETGGILGEGTPKESSTESSQSAKPVSGQDTSGNTEGSPAAEKAQLKSEAAGSPDQGSTYSPARGVAGPRGQDPVSSPCG
notes: CLCC1, human
stoichiometry N: 2
